Reference: US20050287542A1 (YALE UNIVERSITY, published 2005)
Square brackets hold non-standard residues; d marks the D form. Primed or numbered codes have the meaning given here. Ends that are not written are not given here. * marks the point of attachment. acetamidofluorescein = acetamidofluorescein label attached to the side chain of a C-terminal cysteine residue (made by modifying the cysteine with 5-iodoacetamidofluorescein); acetamidofluorescein″ = acetamidofluorescein (5-iodoacetamidofluorescein attached to the C-terminal Cys); Fluorescein(5-NHCOCH2) = O=C(C*)Nc1ccc2c(c1)C(=O)OC21c2ccc(O)cc2Oc2cc(O)ccc21; pS = N[C@@H](COP(=O)(O)O)C(=O)O

Tests used:
[1] = target: T1, HisKIX (His-tagged CBP KIX domain) (UniProt P45481 586-672); assay: fluorescence polarization
T1 construct: range 586-672; not shown: amino-terminal hexahistidine tag of pET15b
T1 sequence (P45481 586-672): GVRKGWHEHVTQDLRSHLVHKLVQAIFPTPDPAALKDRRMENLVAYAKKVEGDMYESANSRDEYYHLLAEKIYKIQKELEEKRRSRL

[2] = target: T2, GST-KIXY650A (Y650A variant of CBP KIX) (UniProt P45481 586-665, limits assumed); assay: fluorescence polarization
T2 construct: domain: KIX; not shown: GST tag
T2 sequence (P45481 586-665 Y650A limits assumed): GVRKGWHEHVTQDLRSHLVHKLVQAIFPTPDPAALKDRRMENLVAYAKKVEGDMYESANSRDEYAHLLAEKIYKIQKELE

calmodulin (Sigma) [3] = assay: fluorescence polarization, calmodulin
Method: (§1) Binding reactions containing serially diluted target protein and 25-50 nM of fluorescein-labeled peptides (peptide^Flu) were incubated for 30 min at 25° C. Each point represents the average polarization of two to three independent samples; error bars denote standard error. […] Circular and triangular symbols indicate that HisKIX was used as the target protein; the symbols are colored as in FIG. 9 with the exception of the points for peptide C^U, which are in orange for clarity. Square symbols indicate that carbonic anhydrase was used as the target protein. […] Circular and triangular symbols indicate that HisKIX was used as the target protein, and the symbols are colored as in FIG. 9. Square symbols indicate that calmodulin was used as the target protein.

[4] = target: carbonic anhydrase II (Sigma); assay: fluorescence polarization, carbonic anhydrase II
carbonic anhydrase II (Sigma), sequence (P00921 2-260): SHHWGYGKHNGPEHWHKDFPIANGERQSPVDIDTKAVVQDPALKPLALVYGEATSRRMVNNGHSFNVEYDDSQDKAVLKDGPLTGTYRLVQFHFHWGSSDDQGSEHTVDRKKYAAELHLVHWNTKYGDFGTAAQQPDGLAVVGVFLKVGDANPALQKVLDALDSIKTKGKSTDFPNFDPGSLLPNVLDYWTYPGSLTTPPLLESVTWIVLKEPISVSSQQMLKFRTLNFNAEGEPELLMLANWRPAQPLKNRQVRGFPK

calmodulin (Sigma) [5] = assay: fluorescence polarization
Method: as §1

[6] = target: carbonic anhydrase II (Sigma); assay: fluorescence polarization
Method: as §1

CBP KIX variant I660A = target: T3, CBP KIX variant I660A (UniProt P45481 586-665, limits assumed); assay: fluorescence polarization
T3 construct: domain: KIX
T3 sequence (P45481 586-665 I660A limits assumed): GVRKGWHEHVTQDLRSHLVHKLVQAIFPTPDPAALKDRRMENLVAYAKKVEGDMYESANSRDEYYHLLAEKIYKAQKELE

CBP KIX variant L599A = target: T4, CBP KIX variant L599A (UniProt P45481 586-665, limits assumed); assay: fluorescence polarization
T4 construct: domain: KIX
T4 sequence (P45481 586-665 L599A limits assumed): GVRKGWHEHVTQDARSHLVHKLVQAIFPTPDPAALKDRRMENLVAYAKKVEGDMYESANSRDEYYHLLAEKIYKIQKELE

CBP KIX variant K662A = target: T5, CBP KIX variant K662A (UniProt P45481 586-665, limits assumed); assay: fluorescence polarization
T5 construct: domain: KIX
T5 sequence (P45481 586-665 K662A limits assumed): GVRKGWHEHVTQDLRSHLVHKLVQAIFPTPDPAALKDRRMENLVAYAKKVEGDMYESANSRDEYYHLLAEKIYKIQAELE

CBP KIX variant L603A = target: T6, CBP KIX variant L603A (UniProt P45481 586-665, limits assumed); assay: fluorescence polarization
T6 construct: domain: KIX
T6 sequence (P45481 586-665 L603A limits assumed): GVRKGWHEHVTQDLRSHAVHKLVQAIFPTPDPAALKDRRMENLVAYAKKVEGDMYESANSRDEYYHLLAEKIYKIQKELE

CBP KIX variant Y658F = target: T7, CBP KIX variant Y658F (UniProt P45481 586-665, limits assumed); assay: fluorescence polarization
T7 construct: domain: KIX
T7 sequence (P45481 586-665 Y658F limits assumed): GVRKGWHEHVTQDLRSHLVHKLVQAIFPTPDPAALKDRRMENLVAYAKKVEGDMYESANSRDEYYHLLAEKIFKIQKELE

CBP KIX variant I657A = target: T8, CBP KIX variant I657A (UniProt P45481 586-665, limits assumed); assay: fluorescence polarization
T8 construct: domain: KIX
T8 sequence (P45481 586-665 I657A limits assumed): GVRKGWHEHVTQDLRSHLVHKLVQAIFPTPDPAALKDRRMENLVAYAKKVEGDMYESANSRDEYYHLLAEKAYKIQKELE

CBP KIX variant K606A = target: T9, CBP KIX variant K606A (UniProt P45481 586-665, limits assumed); assay: fluorescence polarization
T9 construct: domain: KIX
T9 sequence (P45481 586-665 K606A limits assumed): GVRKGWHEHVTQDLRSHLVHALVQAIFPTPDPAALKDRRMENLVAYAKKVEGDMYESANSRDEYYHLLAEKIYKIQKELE

CBP KIX variant Q661A = target: T10, CBP KIX variant Q661A (UniProt P45481 586-665, limits assumed); assay: fluorescence polarization
T10 construct: domain: KIX
T10 sequence (P45481 586-665 Q661A limits assumed): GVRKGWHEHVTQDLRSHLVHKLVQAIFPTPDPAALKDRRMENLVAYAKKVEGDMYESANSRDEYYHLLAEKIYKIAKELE

CBP KIX variant Y658A = target: T11, CBP KIX variant Y658A (UniProt P45481 586-665, limits assumed); assay: fluorescence polarization
T11 construct: domain: KIX
T11 sequence (P45481 586-665 Y658A limits assumed): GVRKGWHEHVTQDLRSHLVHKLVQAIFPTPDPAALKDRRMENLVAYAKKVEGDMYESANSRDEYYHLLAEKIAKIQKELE

[7] = target: T12, CBP KIX variant LL652-3AA (UniProt P45481 586-665, limits assumed); assay: fluorescence polarization
T12 construct: domain: KIX
T12 sequence (P45481 other isoform, or with tags, fused parts or gaps mutant limits assumed): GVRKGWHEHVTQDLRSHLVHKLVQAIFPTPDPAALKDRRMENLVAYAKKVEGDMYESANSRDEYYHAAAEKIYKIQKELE

CBP KIX variant E655A = target: T13, CBP KIX variant E655A (UniProt P45481 586-665, limits assumed); assay: fluorescence polarization
T13 construct: domain: KIX
T13 sequence (P45481 586-665 E655A limits assumed): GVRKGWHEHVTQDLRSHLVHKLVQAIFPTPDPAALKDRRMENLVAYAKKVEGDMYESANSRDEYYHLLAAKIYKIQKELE

[8] = target: T14, CBP KIX variant Y650A (Example 20) (UniProt P45481 586-665, limits assumed); assay: fluorescence polarization
T14 construct: domain: KIX
T14 sequence (P45481 586-665 Y650A limits assumed): as the sequence (P45481 586-665 Y650A limits assumed) above

[9] = target: carbonic anhydrase II (Sigma); assay: fluorescence emission change of labelled peptide, PBS
calmodulin (Sigma) [10] = assay: fluorescence emission change of labelled peptide, HEPES/KCl/CaCl2 buffer
[11] = target: T1, HisKIX (His-tagged CBP KIX domain); assay: fluorescence polarization competition; displaces 25 nM fluorescein-labelled PPKID6^U from 3.0 µM HisKIX
[12] = target: T1, HisKIX (His-tagged CBP KIX domain); assay: fluorescence polarization competition: 25 nM fluorescein-labelled PPKID4^P on 1.5 uM HisKIX, unlabelled KID-AB^P titrated
Method: Each point represents an average of three independent samples; the error bars denote standard error.
6) Fluorescence polarization—Fluorescence polarization experiments were performed with a Photon Technology International QuantaMaster C-60 spectrofluorimeter at 25° C. in a 1 cm pathlength Hellma cuvette. […] Briefly, an aliquot of fluorescently labeled peptide was added to a final concentration of 25-50 nM and the binding reaction was incubated for 30 min at 25° C. Thirty minutes was a sufficient length of time for the binding reaction to reach equilibrium, as judged by an absence of change in the observed polarization value of the sample with the highest HisKIX concentration over 1 h.

[13] = target: T1, HisKIX (His-tagged CBP KIX domain); assay: fluorescence polarization competition; displaces 25 nM fluorescein-labelled PPKID4^P from 1.5 µM HisKIX
[14] = target: T1, HisKIX (His-tagged CBP KIX domain); assay: fluorescence polarization; end tied to the member by the Kd of Table 1
Method: 6) Fluorescence polarization—Fluorescence polarization experiments were performed with a Photon Technology International QuantaMaster C-60 spectrofluorimeter at 25° C. in a 1 cm pathlength Hellma cuvette. […] Briefly, an aliquot of fluorescently labeled peptide was added to a final concentration of 25-50 nM and the binding reaction was incubated for 30 min at 25° C. Thirty minutes was a sufficient length of time for the binding reaction to reach equilibrium, as judged by an absence of change in the observed polarization value of the sample with the highest HisKIX concentration over 1 h. […] For specificity measurements, carbonic anhydrase II (Sigma) or calmodulin (Sigma) was used as the target protein in place of HisKIX, and fluorescently labeled peptide was used at a final concentration of 50 nM. Carbonic anhydrase was serially diluted in binding buffer as described for HisKIX.
The polarization data were fit using Kaleidagraph v3.51 software to equilibrium binding equation (1), derived from first principles.

calmodulin (Sigma) [15] = assay: fluorescence polarization, calmodulin (text differs from Table 2)
Method: 6) Fluorescence polarization—Fluorescence polarization experiments were performed with a Photon Technology International QuantaMaster C-60 spectrofluorimeter at 25° C. in a 1 cm pathlength Hellma cuvette. […] Briefly, an aliquot of fluorescently labeled peptide was added to a final concentration of 25-50 nM and the binding reaction was incubated for 30 min at 25° C. Thirty minutes was a sufficient length of time for the binding reaction to reach equilibrium, as judged by an absence of change in the observed polarization value of the sample with the highest HisKIX concentration over 1 h. […] For specificity measurements, carbonic anhydrase II (Sigma) or calmodulin (Sigma) was used as the target protein in place of HisKIX, and fluorescently labeled peptide was used at a final concentration of 50 nM.

[16] = target: T15, wild type CBP KIX (Example 20) (UniProt P45481 586-665, limits assumed); assay: fluorescence polarization
T15 construct: domain: KIX
T15 sequence (P45481 586-665 limits assumed): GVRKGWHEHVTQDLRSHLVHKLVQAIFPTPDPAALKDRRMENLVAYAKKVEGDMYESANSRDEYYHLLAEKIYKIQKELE

calmodulin (Sigma) [17] = assay: fluorescence polarization; remark: listed apart in the source
[18] = target: T1, HisKIX (His-tagged CBP KIX domain); assay: fluorescence polarization; remark: listed apart in the source
Method: as §1

[19] = target: T1, HisKIX (His-tagged CBP KIX domain); assay: fluorescence polarization, HisKIX, 25 C

GISWPTFEGDDAPVRRLEFFYILLDLYLDAPGVC(acetamidofluorescein″)-NH2 (designed binder) [PPKID6 S18E]
ΔΔG against PPKID6^U [1]: 1.2 kcal/mol

GISWPTFEGDDAPVRRL[pS]FFYILLDLYLDAPGVC(acetamidofluorescein″)-NH2 (designed binder, also called PPKID6 (phosphorylated)) [PPKID6^P]
ΔΔG upon phosphorylation [1]: -0.5 kcal/mol

GISWPTFEGDDAPVRRLSFFYILLDLYLDAPGVC(acetamidofluorescein)-NH2 (designed binder, also called PPKID6 (unphosphorylated)) [PPKID6^U]
Kd [2]: 0.712 µM | Kd (calmodulin (Sigma) [3]): > 168 µM | Kd [4]: 79 µM | Krel = Kd (CalM)/Kd (HisKIX) (calmodulin (Sigma) [5]): > 112 | Krel = Kd (CA)/Kd (HisKIX) [6]: 53 | ΔΔG against wild type CBP KIX (CBP KIX variant I660A): 1.4 kcal/mol | ΔΔG against wild type CBP KIX (CBP KIX variant L599A): 1.1 kcal/mol | ΔΔG against wild type CBP KIX (CBP KIX variant K662A): 0.71 kcal/mol | ΔΔG against wild type CBP KIX (CBP KIX variant L603A): 0.91 kcal/mol | ΔΔG against wild type CBP KIX (CBP KIX variant Y658F): 0.97 kcal/mol | ΔΔG against wild type CBP KIX (CBP KIX variant I657A): 1.1 kcal/mol | ΔΔG against wild type CBP KIX (CBP KIX variant K606A): 0.47 kcal/mol | ΔΔG against wild type CBP KIX (CBP KIX variant Q661A): -0.16 kcal/mol | ΔΔG against wild type CBP KIX (CBP KIX variant Y658A): 0.68 kcal/mol | ΔΔG against wild type CBP KIX [7]: -0.8 kcal/mol | ΔΔG against wild type CBP KIX (CBP KIX variant E655A): 0.68 kcal/mol | ΔΔG against wild type CBP KIX [8]: 0.52 kcal/mol

GQVGRQLAIIGDDINRYC(5‑iodoacetamidofluorescein)-NH2 (also called Bak BH3 peptide; Bak 72-94) [Bak peptide, fluorescein-labelled (Bak-flu)]
Kd [9]: 22 µM | Kd (calmodulin (Sigma) [10]): 25 µM

RRLSFFYILLDLYLDAPGVC(acetamidofluorescein)-NH2 [peptide C^U]
ΔΔG against KID-B^U [1]: ≥ -1.5 kcal/mol | Krel = Kd (CA)/Kd (HisKIX) [6]: 3

TDSQKRREILSRRP[pS]YRKILNDLSSDAPGVC-NH2 (also called CREB KID^P) [unlabeled KID-AB^P]
IC50 [11]: 2.4 µM | IC50 (read off the curve) [12]: ~3 µM | IC50 [13]: 3.2 µM

GASDMTYWGDDAPVRRLSFFYILLDLYLDAPGVC(acetamidofluorescein″)-NH2 (designed binder, also called PPKID1 (unphosphorylated)) [PPKID1^U]
ΔΔG against peptide C^U [14]: 0.1 kcal/mol

GASPHTSSGDDAPVRRLSFFDILLDLYLDAPGVC(acetamidofluorescein″)-NH2 (designed binder, also called PPKID3 (unphosphorylated)) [PPKID3^U]
ΔΔG against peptide C^U [14]: -0.7 kcal/mol

B1: PPKID4^P (designed binder)
peptide: GPSQPTYPGDDAPVRRL[pS]FFYILLDLYLDAPGVC(acetamidofluorescein)-NH2
notes: also called PPKID4 (phosphorylated); wild type PPKID4^P
Kd (calmodulin (Sigma) [3]): 52 µM | Kd [4]: 106 µM | Kd (calmodulin (Sigma) [15]): 51 µM | ΔΔG against wild type CBP KIX (CBP KIX variant I660A): 0.35 kcal/mol | ΔΔG against wild type CBP KIX (CBP KIX variant L599A): 0.58 kcal/mol | ΔΔG against wild type CBP KIX (CBP KIX variant K662A): 1.1 kcal/mol | ΔΔG against wild type CBP KIX (CBP KIX variant L603A): 1 kcal/mol | ΔΔG against wild type CBP KIX (CBP KIX variant Y658F): 1.1 kcal/mol | ΔΔG against wild type CBP KIX (CBP KIX variant I657A): 0.89 kcal/mol | ΔΔG against wild type CBP KIX (CBP KIX variant K606A): 0.97 kcal/mol | ΔΔG against wild type CBP KIX (CBP KIX variant Q661A): 0.35 kcal/mol | ΔΔG against wild type CBP KIX (CBP KIX variant Y658A): 1.1 kcal/mol | ΔΔG against wild type CBP KIX [7]: 0.93 kcal/mol | ΔΔG against wild type CBP KIX (CBP KIX variant E655A): -0.07 kcal/mol | ΔΔG against wild type CBP KIX [8]: 0.95 kcal/mol

H-GPSQATYPGDDAPVRRL[pS]FFYILLDLYLDAPGVC(Fluorescein(5-NHCOCH2))-NH2 (designed binder) [PPKID4^P variant P5A]
ΔΔG against wild type PPKID4^P [16]: 0.3 kcal/mol

H-GPSQPTYPGDDAPVRRL[pS]FFYILLDLYADAPGVC(Fluorescein(5-NHCOCH2))-NH2 (designed binder) [PPKID4^P variant L28A]
ΔΔG against wild type PPKID4^P [16]: 0.18 kcal/mol

H-GPSQPTYPGDDAPVRRL[pS]FFYILADLYLDAPGVC(Fluorescein(5-NHCOCH2))-NH2 (designed binder) [PPKID4^P variant L24A]
ΔΔG against wild type PPKID4^P [16]: 0.38 kcal/mol

H-GPSQPTYAGDDAPVRRL[pS]FFYILLDLYLDAPGVC(Fluorescein(5-NHCOCH2))-NH2 (designed binder) [PPKID4^P variant P8A]
ΔΔG against wild type PPKID4^P [16]: 0.33 kcal/mol

H-GPSQPTYPGDDAPVRRL[pS]FAYILLDLYLDAPGVC(Fluorescein(5-NHCOCH2))-NH2 (designed binder) [PPKID4^P variant F20A]
ΔΔG against wild type PPKID4^P [16]: 0.85 kcal/mol

H-GPSQPTYPGDDAPVRRA[pS]FFYILLDLYLDAPGVC(Fluorescein(5-NHCOCH2))-NH2 (designed binder) [PPKID4^P variant L17A]
ΔΔG against wild type PPKID4^P [16]: 0.07 kcal/mol

H-GPSQPTYPGDDAPVRRL[pS]FFYILLDLALDAPGVC(Fluorescein(5-NHCOCH2))-NH2 (designed binder) [PPKID4^P variant Y27A]
ΔΔG against wild type PPKID4^P [16]: 0.96 kcal/mol

H-GASQPTYPGDDAPVRRL[pS]FFYILLDLYLDAPGVC(Fluorescein(5-NHCOCH2))-NH2 (designed binder) [PPKID4^P variant P2A]
ΔΔG against wild type PPKID4^P [16]: 0.21 kcal/mol

RRL[pS]FFYILLDLYLDAPGVC(acetamidofluorescein)-NH2 [peptide C^P (chimeric α-helical portion of the PPKID peptides, residues 15-33, phosphorylated)]
fold lower affinity than PPKID4^P (calmodulin (Sigma) [17]): 4 fold | ΔΔG against KID-B^P [1]: -1.8 kcal/mol | Kd (calmodulin (Sigma) [3]): 178 µM | Krel = Kd (CalM)/Kd (HisKIX) (calmodulin (Sigma) [5]): 74 | Krel = Kd (CA)/Kd (HisKIX) [6]: 40 | Kd [18]: 2.4 µM | Kd [19]: 2.4 µM

B2: p4099, fluorescein-labelled (designed binder)
peptide: GPSQPTYPGDDAPVEDLIRFVGRLLAYFGDTINRYC(5‑iodoacetamidofluorescein)-NH2
notes: p4121-flu tied to p4099 by order and mass difference only; also called p4099 (GAGT); p4121-flu
Kd [9]: 8.6 µM | Kd (calmodulin (Sigma) [10]): 25 µM
